Data as given in PMC8682488, “c-di-GMP Homeostasis Is Critical for Heterocyst Development in Anabaena sp. PCC 7120” (Frontiers in Microbiology, 2021).

T1: CdgS (Nostoc sp. PCC 7120 = FACHB-418, UniProt A0ACD7RTW6)
T1 construct: gene all2874; N-terminal REC and C-terminal GGDEF domain, two C-terminal Strep-tags (pHTwinStrep), E. coli BL21(DE3), Strep-Tactin purified
T1 sequence (A0ACD7RTW6 1-330): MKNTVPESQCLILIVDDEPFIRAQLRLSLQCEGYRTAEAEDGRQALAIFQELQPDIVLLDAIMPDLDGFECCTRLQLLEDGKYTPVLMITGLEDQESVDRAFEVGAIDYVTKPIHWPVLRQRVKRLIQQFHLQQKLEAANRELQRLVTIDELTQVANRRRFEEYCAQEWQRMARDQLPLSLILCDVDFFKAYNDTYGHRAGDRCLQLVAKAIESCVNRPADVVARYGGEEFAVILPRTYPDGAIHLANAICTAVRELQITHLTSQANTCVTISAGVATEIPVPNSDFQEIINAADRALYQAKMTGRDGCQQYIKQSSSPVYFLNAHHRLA


Columns and labels:
CdgS = biological target: T1, CdgS; test: HPLC, diguanylate cyclase product formation; assay type: biochemical; settings: DGC activity (GTP to c-di-GMP); 50 μM GTP, 2 μM protein, pH 8.0, 10 mM MgCl2, 25 °C, 30 min
[1] = substrate: Nc1nc2c(ncn2[C@@H]2O[C@H](COP(=O)(O)OP(=O)(O)OP(=O)(O)O)[C@@H](O)[C@H]2O)c(=O)[nH]1; test: HPLC, diguanylate cyclase steady-state kinetics; assay type: biochemical, Nostoc sp. PCC 7120 = FACHB-418; settings: DGC activity (GTP to c-di-GMP), GGDEF domain, 50 mM Tris-HCl pH 8.0, 10 mM MgCl2, 0.5 mM EDTA, 300 mM NaCl, 25 °C
Excerpt: HPLC, diguanylate cyclase steady-state kinetics on CdgSH

[2] = substrate: Nc1nc2c(ncn2[C@@H]2O[C@@H]3CO[P@](=O)(O)O[C@H]4[C@@H](O)[C@H](n5cnc6c(=O)[nH]c(N)nc65)O[C@@H]4CO[P@](=O)(O)O[C@H]3[C@H]2O)c(=O)[nH]1; test: HPLC, c-di-GMP phosphodiesterase steady-state kinetics; assay type: biochemical, Nostoc sp. PCC 7120 = FACHB-418; settings: PDE activity (c-di-GMP to pGpG), EAL domain, 50 mM Tris-HCl pH 8.0, 10 mM MgCl2, 0.5 mM EDTA, 300 mM NaCl, 25 °C
Excerpt: HPLC, c-di-GMP phosphodiesterase steady-state kinetics on CdgSH

| Molecule | HPLC, diguanylate cyclase product formation (CdgS) | Km [1] [µM] | kcat [1] [s⁻¹] | Km [2] [µM] | kcat [2] [s⁻¹] |
| --- | --- | --- | --- | --- | --- |
| Nc1nc2c(ncn2[C@@H]2O[C@H](COP(=O)(O)OP(=O)(O)OP(=O)(O)O)[C@@H](O)[C@H]2O)c(=O)[nH]1 [GTP] | CdgS could convert the substrate GTP to c-di-GMP | – | – | – | – |
| CdgSH (Nostoc sp. PCC 7120 = FACHB-418) (protein, FHA-PAS-GAF-GGDEF-EAL protein, two C-terminal Strep-tags (pHTwinStrep), E. coli BL21(DE3), Strep-Tactin purified) MPGNEWEKIRHILVVQDLQGQRTIPLQEATYSIGRHTSNAIVLHSRSVSRQHAILLRVTLPETDQCSFRIIDGNFKGQGSTNGLLVNGTRCFSHNLRHGDVINFGSHQAQAKYYAISNISEKAFFASADVEDLSTFLSELSQPVNPFQTLVVDPEFEGASETALARLASFPELIPNPIIETDLEGRVTYINPAASVKFPDLRELGKQHPILKDILNIAENPKINPFVREVTVGHAVYEQSVHNLPESDLIRTYIIRDVTEQKQAEAELHQRDRLLQAVAEAANWLVVEMNYDTAIEKALAVVGEAAQADRAYLFKNHPHPITGKRAVSLQFEWYGSDLQPSIQDWQNQLYQSTELSRWYSVLSSGKSINELRRKLPVAERELLERQGIQSLLLVPLGLEDQFWGYLGLADCTQERYWSRHEESTLLTMAASISGAWQRQQVEEKIRYQALHDLLTGLPNRLLFNELLAKALANASRSQESLAVMFLDLDRFKVINDTLGHTLGDRLLQSVAQRLRDCLRSGDTVSRWGGDEFTILLPHISYIEEVTQAACRILKALEEVFHLDGHELYVSASLGIALLDHHSPDAEALIKHADAALYHAKDEGRNNYQFYTTSLSGKTPELLTLEKSLRYALEKQELKVYYQPRVNILTGQITGMEALLRWQHPEMGIVAPSIFIPIAEETGLIIPIGEWVLRTACMQNRAWQEAGLPPVQMAVNLSPKQFRQPTLLELVSAILAETGLAPEFLELEITESTAIEDIDFTRSVLENLQQMGVDIAIDDFGTGHSSLSRLQLLPLHNLKIDGSFIKALTTDSKVAHIVKAIVTLGRSLGLRLTAEGVEKQEELDFLKSINCQDVQGFLFHKPLSAEKATEILQGEKKHATL | – | 37.2 | 0.39 | 23.5 | 1.26 |
| CdgSH (Nostoc sp. PCC 7120 = FACHB-418; D530A/E531A) (protein, FHA-PAS-GAF-GGDEF-EAL protein, two C-terminal Strep-tags (pHTwinStrep), E. coli BL21(DE3), Strep-Tactin purified) MPGNEWEKIRHILVVQDLQGQRTIPLQEATYSIGRHTSNAIVLHSRSVSRQHAILLRVTLPETDQCSFRIIDGNFKGQGSTNGLLVNGTRCFSHNLRHGDVINFGSHQAQAKYYAISNISEKAFFASADVEDLSTFLSELSQPVNPFQTLVVDPEFEGASETALARLASFPELIPNPIIETDLEGRVTYINPAASVKFPDLRELGKQHPILKDILNIAENPKINPFVREVTVGHAVYEQSVHNLPESDLIRTYIIRDVTEQKQAEAELHQRDRLLQAVAEAANWLVVEMNYDTAIEKALAVVGEAAQADRAYLFKNHPHPITGKRAVSLQFEWYGSDLQPSIQDWQNQLYQSTELSRWYSVLSSGKSINELRRKLPVAERELLERQGIQSLLLVPLGLEDQFWGYLGLADCTQERYWSRHEESTLLTMAASISGAWQRQQVEEKIRYQALHDLLTGLPNRLLFNELLAKALANASRSQESLAVMFLDLDRFKVINDTLGHTLGDRLLQSVAQRLRDCLRSGDTVSRWGGAAFTILLPHISYIEEVTQAACRILKALEEVFHLDGHELYVSASLGIALLDHHSPDAEALIKHADAALYHAKDEGRNNYQFYTTSLSGKTPELLTLEKSLRYALEKQELKVYYQPRVNILTGQITGMEALLRWQHPEMGIVAPSIFIPIAEETGLIIPIGEWVLRTACMQNRAWQEAGLPPVQMAVNLSPKQFRQPTLLELVSAILAETGLAPEFLELEITESTAIEDIDFTRSVLENLQQMGVDIAIDDFGTGHSSLSRLQLLPLHNLKIDGSFIKALTTDSKVAHIVKAIVTLGRSLGLRLTAEGVEKQEELDFLKSINCQDVQGFLFHKPLSAEKATEILQGEKKHATL | – | – | – | 31.0 | 1.78 |
| CdgSH (Nostoc sp. PCC 7120 = FACHB-418; E656A/L658A) (protein, FHA-PAS-GAF-GGDEF-EAL protein, two C-terminal Strep-tags (pHTwinStrep), E. coli BL21(DE3), Strep-Tactin purified) MPGNEWEKIRHILVVQDLQGQRTIPLQEATYSIGRHTSNAIVLHSRSVSRQHAILLRVTLPETDQCSFRIIDGNFKGQGSTNGLLVNGTRCFSHNLRHGDVINFGSHQAQAKYYAISNISEKAFFASADVEDLSTFLSELSQPVNPFQTLVVDPEFEGASETALARLASFPELIPNPIIETDLEGRVTYINPAASVKFPDLRELGKQHPILKDILNIAENPKINPFVREVTVGHAVYEQSVHNLPESDLIRTYIIRDVTEQKQAEAELHQRDRLLQAVAEAANWLVVEMNYDTAIEKALAVVGEAAQADRAYLFKNHPHPITGKRAVSLQFEWYGSDLQPSIQDWQNQLYQSTELSRWYSVLSSGKSINELRRKLPVAERELLERQGIQSLLLVPLGLEDQFWGYLGLADCTQERYWSRHEESTLLTMAASISGAWQRQQVEEKIRYQALHDLLTGLPNRLLFNELLAKALANASRSQESLAVMFLDLDRFKVINDTLGHTLGDRLLQSVAQRLRDCLRSGDTVSRWGGDEFTILLPHISYIEEVTQAACRILKALEEVFHLDGHELYVSASLGIALLDHHSPDAEALIKHADAALYHAKDEGRNNYQFYTTSLSGKTPELLTLEKSLRYALEKQELKVYYQPRVNILTGQITGMAAALRWQHPEMGIVAPSIFIPIAEETGLIIPIGEWVLRTACMQNRAWQEAGLPPVQMAVNLSPKQFRQPTLLELVSAILAETGLAPEFLELEITESTAIEDIDFTRSVLENLQQMGVDIAIDDFGTGHSSLSRLQLLPLHNLKIDGSFIKALTTDSKVAHIVKAIVTLGRSLGLRLTAEGVEKQEELDFLKSINCQDVQGFLFHKPLSAEKATEILQGEKKHATL | – | 34.8 | 0.12 | – | – |
